Patent US20170096478A1, “THERAPEUTIC AGENT FOR INFLAMMATORY DISEASE” (Josai University Corporation, priority 2012, published 2017)

Key:
[1] = tested on: lipopolysaccharide (LPS)-induced lethal sepsis; assay: Test Example 8-2: histone concentration in serum and inflammatory tissue (lung); format: in vivo, BALB/c mice
Experimental: (§1) BALB/c mice (bodyweight of 20 g to 30 g when starting the experiments, n=10) were raised in a plastic cage under SPF and thermo-hydrostat (22±1° C., 55±5%) conditions under 12-hour light-dark cycle. Foods and water were supplied ad libitum. Then, by intraperitoneally administering LPS to the mice at a dose of 40 mg/kg, lipopolysaccharide (LPS)-induced lethal sepsis as an inflammatory disease was induced in the same manner as Test Example 7. SSV mAb dissolved in physiological saline was intraperitoneally administered totally 3 times, i.e., at 30 minutes before, 6 hours after and 12 hours after the intraperitoneal administration of LPS, in an amount of 100 μg/dose in terms of the amount of SSV mAb. The survival of the animals thereafter was tested. To the control group, IgG (SIGMA) dissolved in physiological saline was administered in place of SSV mAb in the same manner.
In Test Example 8, heart-derived blood or lung tissue was obtained from control group and SSV mAb-administered group under general anesthesia according to the method conducted by Hasegawa et al. (Surg Res. 2012 May 1; 174(1):136-41.). The concentration of histone H1, histone H3 and H4 of the obtained samples were measured by using a commercially available measurement kit using ELISA.

[2] = tested on: lipopolysaccharide (LPS)-induced lethal sepsis; assay: Test Example 8-1: survival in LPS-induced lethal sepsis; format: in vivo, BALB/c mice
Experimental: as §1

histone H2B = assay: ELISA affinity for histone H2B; format: binding; conditions: absorbance at 405 nm; 5 μg/mL antibody; compared with histone H1
Experimental: (§2) The Affinities between histone H1 or core histone and SSVmAb were determined by ELISA.
(§3) A 96 well microplate was coated with histone H1, H2A, H2B, H3 or H4. Each histone used was dissolved in 100 mM sodium carbonate buffer (pH 9.3). The plate was washed with PBS-tween 20 (0.05%), and blocked with 3% skim milk and 1% BSA for 1 hour. To each well, 5 μg/mL SSVmAb was added, and incubated for 1 hour. Bound SSVmAb was detected using peroxidase (HRP) conjugated anti mouse IgG1 Ab (SIGMA), and incubated for 1 hour. Bound SSVmAb was detected using the ABTS [2,2′-azino-bis(3-ethylbenzothiazoline-sulfonic acid)] substrate solution, and absorbance at 405 nm was measured using Multiskan Ascent (Thermo Fisher Scientific Inc., Waltham, Mass.).

[3] = tested on: T cells from a Balb/c mouse; assay: MLR tests with T cells with or without mitochondria ATP synthase knock-down by siRNA; format: cell-based
histone H1 = assay: ELISA affinity for histone H1; format: binding; conditions: absorbance at 405 nm; 5 μg/mL antibody; compared among histones
Experimental: as §2, §3
(§4) After the end of the tests, binding assays of SSV mAb with histone H1, histone H3 and histone H4 were carried out by ELISA in the same manner as Test Example 2.

histone H3 = assay: ELISA affinity for histone H3; format: binding; conditions: absorbance at 405 nm, 5 μg/mL antibody, compared with histone H1
Experimental: as §2, §3, §4

[4] = tested on: lipopolysaccharide (LPS)-induced lethal sepsis; assay: Test Example 8-5: measurement of inflammation-associated cytokine in serum; format: in vivo, BALB/c mice; conditions: vs control group
Experimental: as §1
In Test Example 8, serum was obtained from venous blood of the control group and the SSV mAb-administered group every 3 hours. Then, the concentrations of inflammatory cytokine (TNF-α, IL-1β, IL-6) and inhibitory cytokine (IL-10) in obtained samples were measured by using a commercially available measurement kit using ELISA.

[5] = tested on: renal ischemia reperfusion injury; assay: Test Example 9: acute renal failure due to renal ischemia reperfusion injury, check test 1; format: in vivo, male Wistar rat; conditions: autopsy after the end of the test; vs control group
Experimental: Right kidney was removed from male Wistar rat (n=4) under general anesthesia, and then left kidney of the rat was subjected to ischemia reperfusion with vascular clip to prepare a model. For SSV mAb-administered group, SSV mAb was then administered in an amount of 10 mg/kg 30 minutes before preparing the model and immediately after the reperfusion For control group, IgG (SIGMA) was administered in place of SSV mAb in the same manner. Then, urea nitrogen (BUN) and creatinine (Cr) in serum at 24 hours after preparing the model were measured and the nephropathy level was evaluated. Further, the rats were subjected to autopsy after the end of the test, and histological evaluation was performed.

B1: SSV mAb: monoclonal antibody (IgG1) produced by Mouse-Mouse hybridoma SSV-C 93-3 (NITE BP-972), raised against peptide … (SEQ ID NO:1)-KLH conjugate (antibody, V domains shown)
VH: EIQLQQSGAELVKPGASVKISCKASGYSFTGYNMNWVKQSHGKSLEWIGNINPYYGSTSYNQKFKGKATLTVDKSSSTAYMQLNSLTSEDSAVYYCARSPYYSNYWRYFDYWGQGTTLTVSS
VL: QIVLSQSPAILSASPGEKVTMTCRASSSVSYMHWYQQKPGSSPKPWIYATSNLASGVPARFSGSGSGTSYSLTISRVEAEDAATYYCQQWSSNPWTFGGGTKLEIK
With B1 the “concentration of histone H3 in blood sample” value ([1]; FIG. 10A, vs control group) was “lower than the control group”, the “concentration of histone H3 in inflammatory tissue (lung)” value ([1]; FIG. 10B, vs control group) was “lower than the control group” and the “concentration of histone H1 in blood sample” value ([1]; serum, during the test) was “almost kept constant without increase”. For the same molecule, the “concentration of histone H3 in blood sample” value ([1]; stated under the histone H4 results, FIG. 11A, vs control group) was “tend to be lower than the control group”, the “concentration of histone H3 in inflammatory tissue (lung)” value ([1]; stated under the histone H4 results, FIG. 11B, vs control group) was “tend to be lower than the control group” and the “concentration of histone H1 in inflammatory tissue (lung)” value ([1]; vs control group) was “more significantly decreased than that from the control group”. For the same molecule, the survival rate ([2]; 24 hours after administration of LPS 40 mg/kg i.p., 100 μg/dose i.p. 3 times) was 70%, the “survival rate relative to that of the control group” value ([2]; 70 hours after administration of LPS, p<0.05) was “about 3.5 times” and the “affinity for histone H2B (ELISA)” value (histone H2B) was “higher than the affinity for histone H1”. The “cell growth inhibition in MLR compared with Isotype IgG1” value ([3]; ATP synthase knocked down) was “no significant difference”, the “cell growth inhibition in MLR compared with Isotype IgG1” value ([3]; ATP synthase not knocked down) was “significantly inhibited cell growth” and the “affinity for histone H1 (ELISA)” value (histone H1) was “binding capacity”. For the same molecule, the “affinity for histone H3 (ELISA)” value (histone H3) was “binding capacity”, the “affinity for histone H3 (ELISA)” value (histone H3; listed as SSVmAb) was “higher than the affinity for histone H1” and the “IL-1β concentration in blood sample” value [4] was “significantly decreased”. The “IL-6 concentration in blood sample” value [4] was “significantly decreased”, the “IL-10 concentration in blood sample” value [4] was “significantly increased” and the “TNF-α concentration in blood sample” value [4] was “significantly decreased”. For the same molecule, the “histological evaluation of kidney” value [5] was “better than that of the control group”.
